Source: PMC7037651, “Chemically Crosslinked Bispecific Antibodies for Cancer Therapy: Breaking from the Structural Restrictions of the Genetic Fusion Approach” (International Journal of Molecular Sciences, 2020)
Where a chain is given by its changes, count along the chain named.

Key:
soluble EGFR (sEGFR) [1] = target: soluble EGFR (sEGFR) (UniProt P00533); test: SPR; Biacore 2000; sEGFR immobilised on a CM5 chip at the lower amount (1073 to 1122 RU); PBS with 0.005% Tween20; scFv monomer or dimer injected for 120 s at 10 to 250 nM; global fit, 1:1 Langmuir model
soluble EGFR (sEGFR) [2] = target: soluble EGFR (sEGFR) (UniProt P00533); test: SPR; Biacore 2000; sEGFR immobilised on a CM5 chip at the higher amount (2605 to 2833 RU); PBS with 0.005% Tween20; scFv monomer or dimer injected for 120 s at 10 to 250 nM; global fit, 1:1 Langmuir model
soluble EGFR (sEGFR) [3] = target: soluble EGFR (sEGFR) (UniProt P00533); test: SPR; Biacore 2000; sEGFR immobilised on a CM5 chip (amount not given for Tables 2 and 5); running buffer PBS with 0.005% Tween20; scFv monomer or dimer injected for 120 s at 10 to 250 nM; global fit, 1:1 Langmuir model
soluble EGFR (sEGFR) [4] = target: T1, soluble EGFR (sEGFR) (Homo sapiens (assumed; EGFR on human …, UniProt P00533); test: SPR; Biacore 2000; sEGFR immobilised on a CM5 chip at the higher amount (2605 to 2833 RU); PBS with 0.005% Tween20; scFv monomer or dimer injected for 120 s at 10 to 250 nM; global fit, 1:1 Langmuir model; conditions: both partners purified
T1 construct: soluble epidermal growth factor receptor (sEGFR); also called epidermal growth factor receptor; immobilized EGFR; source: prepared as described previously [28]

soluble EGFR (sEGFR) [5] = target: T1, soluble EGFR (sEGFR); test: SPR; Biacore 2000; sEGFR immobilised on a CM5 chip at the lower amount (1073 to 1122 RU); PBS with 0.005% Tween20; scFv monomer or dimer injected for 120 s at 10 to 250 nM; global fit, 1:1 Langmuir model; conditions: both partners purified
soluble EGFR (sEGFR) [6] = target: T1, soluble EGFR (sEGFR); test: SPR; Biacore 2000; sEGFR immobilised on a CM5 chip (amount not given for Tables 2 and 5); running buffer PBS with 0.005% Tween20; scFv monomer or dimer injected for 120 s at 10 to 250 nM; global fit, 1:1 Langmuir model; conditions: both partners purified
EGFR on A431 cells = target: T2, EGFR on A431 cells (Homo sapiens (A431 cells), UniProt P00533); test: flow cytometry on cells; competitive binding: 10^6 A431 cells mixed with non-labeled scFv or dimer (50 pmol), washed, then various amounts of FITC-labeled wild-type h528 scFv added; on ice; conditions: one partner purified
T2 construct: epidermal growth factor receptor on A431, a human epidermoid carcinoma line; also called target-expressing cells; A431 (EGFR-positive tumor cell line); source: endogenous, on A431 cells

A Kd (soluble EGFR (sEGFR) [1]) of 18 nM, a koff (soluble EGFR (sEGFR) [1]) of 0.0012 s⁻¹ and a kon (soluble EGFR (sEGFR) [1]) of 62000 M⁻¹ s⁻¹ were found for “tail–tail bivalent h528 scFv dimer with C6 linker” in this work. For the same molecule, the Kd (soluble EGFR (sEGFR) [2]) was 23 nM, the koff (soluble EGFR (sEGFR) [2]) was 0.0015 s⁻¹ and the kon (soluble EGFR (sEGFR) [2]) was 63000 M⁻¹ s⁻¹.

A Kd (soluble EGFR (sEGFR) [2]) of 34 nM was found for “side–side bivalent h528 scFv dimer with C6 linker” in this work.

A Kd (soluble EGFR (sEGFR) [1]) of 78 nM was found for “side–side bivalent h528 scFv dimer with C1 linker” in this work.

A Kd (soluble EGFR (sEGFR) [1]) of 159 nM was found for “side–tail bivalent h528 scFv dimer with C6 linker” in this work.

A Kd (soluble EGFR (sEGFR) [1]) of 149 nM, a koff (soluble EGFR (sEGFR) [1]) of 0.005 s⁻¹ and a kon (soluble EGFR (sEGFR) [1]) of 34000 M⁻¹ s⁻¹ were found for “side–tail bivalent h528 scFv dimer with C1 linker” in this work. For the same molecule, the Kd (soluble EGFR (sEGFR) [2]) was 109 nM, the koff (soluble EGFR (sEGFR) [2]) was 0.0047 s⁻¹ and the kon (soluble EGFR (sEGFR) [2]) was 43000 M⁻¹ s⁻¹.

B1: wild-type humanized 528 (h528) scFv (scFv, V domains shown)
VH: QVQLVQSGAEVKKPGASVKVSCKASGYTFTSYWMHWVRQAPGQGLEWMGNIYPGSGGTNYAEKFKNRVTMTRDTSISTAYMELSRLRSDDTAVYYCARSGGPYFFDYWGQGTLVTVSS
VL: DIVMTQSPLSLPVTPGEPASISCRSSQNIVHNNGITYLEWYLQKPGQSPQLLIYKVSDRFSGVPDRFSGSGSGTDFTLKISRVEAEDVGVYYCFQGSHIPPTFGQGTKVEIK
A Kd (soluble EGFR (sEGFR) [3]) of 26 nM, a koff (soluble EGFR (sEGFR) [3]) of 0.0052 s⁻¹ and a kon (soluble EGFR (sEGFR) [3]) of 196000 M⁻¹ s⁻¹ were found for B1 in this work.

B2: HK19-0K h528 scFv (scFv, V domains shown)
VH: B1 VH with K12A, K13E, K23A, K63E, K65Q
VL: B1 VL with K44R, K55Q, K79T, K108E, K112E
notes: lysine kept at H19; linker (GGGGS)3; 0K scFv with the 19th residue of VH returned to lysine; also called HK19-0K scFv; KH19-0K scFv
A Kd (soluble EGFR (sEGFR) [4]) of 108 nM, a koff (soluble EGFR (sEGFR) [4]) of 0.0075 s⁻¹ and a kon (soluble EGFR (sEGFR) [4]) of 69000 M⁻¹ s⁻¹ were found for B2 in this work. For the same molecule, the Kd (soluble EGFR (sEGFR) [5]) was 144 nM, the koff (soluble EGFR (sEGFR) [5]) was 0.0075 s⁻¹ and the kon (soluble EGFR (sEGFR) [5]) was 52000 M⁻¹ s⁻¹. The Kd (soluble EGFR (sEGFR) [6]) was 135 nM, the koff (soluble EGFR (sEGFR) [6]) was 0.0079 s⁻¹ and the kon (soluble EGFR (sEGFR) [6]) was 60000 M⁻¹ s⁻¹.

B3: LK103-0K h528 scFv (scFv, V domains shown)
VH: B1 VH with K12A, K13E, K19Q, K23A, K63E, K65Q
VL: B1 VL with K44R, K55Q, K79T, K112E
notes: linker (GGGGS)3; lysine kept at L103; also called LK103-0K scFv
A Kd (soluble EGFR (sEGFR) [4]) of 207 nM, a koff (soluble EGFR (sEGFR) [4]) of 0.0089 s⁻¹ and a kon (soluble EGFR (sEGFR) [4]) of 43000 M⁻¹ s⁻¹ were found for B3 in this work. It also gave a Kd (soluble EGFR (sEGFR) [5]) of 221 nM, a koff (soluble EGFR (sEGFR) [5]) of 0.0086 s⁻¹ and a kon (soluble EGFR (sEGFR) [5]) of 39000 M⁻¹ s⁻¹. The Kd (soluble EGFR (sEGFR) [6]) was 205 nM, the koff (soluble EGFR (sEGFR) [6]) was 0.0086 s⁻¹ and the kon (soluble EGFR (sEGFR) [6]) was 42000 M⁻¹ s⁻¹.

B4: 0KCDR h528 scFv (scFv, V domains shown)
VH: B1 VH with K63E, K65Q
VL: B1 VL with K55Q
notes: linker (GGGGS)3; it looks like Kabat numbering; also called 0KCDR scFv
A Kd (soluble EGFR (sEGFR) [6]) of 38 nM, a koff (soluble EGFR (sEGFR) [6]) of 0.0054 s⁻¹ and a kon (soluble EGFR (sEGFR) [6]) of 141000 M⁻¹ s⁻¹ were found for B4 in this work.

B5: 0K h528 scFv (scFv, V domains shown)
VH: B1 VH with K12A, K13E, K19Q, K23A, K63E, K65Q
VL: B1 VL with K44R, K55Q, K79T, K108E, K112E
notes: linker (GGGGS)3; it looks like Kabat numbering; also called h528 scFv without lysine in the CDR and FR
A Kd (soluble EGFR (sEGFR) [6]) of 137 nM, a koff (soluble EGFR (sEGFR) [6]) of 0.0082 s⁻¹ and a kon (soluble EGFR (sEGFR) [6]) of 60000 M⁻¹ s⁻¹ were found for B5 in this work.

B6: FITC-labeled wild-type h528 scFv (scFv, V domains shown)
VH: B1 VH
VL: B1 VL
notes: linker (GGGGS)3; m4 with a fluorescein label; also called fluorescently labeled wild-type scFv; labeled wild-type scFv
B6: binds (EGFR on A431 cells).
